Data taken from article PMC6188088.

Tests used:
[1] = target: TnpA^IS1535, full length, wild type (Mycobacterium tuberculosis); experiment: native gel or EMSA; TnpA (32 nM) and TnpA-MBP (8 to 256 nM), alone or mixed, incubated with the IS1535 LEΔ54 DNA probe, which gives only complex I; oligomer bound to DNA judged from the absence of a band of intermediate mobility
[2] = system: T1, TnpA IS1535 (WT) (Mycobacterium tuberculosis), ORF:81838cbf; experiment: EMSA
T1 sequence: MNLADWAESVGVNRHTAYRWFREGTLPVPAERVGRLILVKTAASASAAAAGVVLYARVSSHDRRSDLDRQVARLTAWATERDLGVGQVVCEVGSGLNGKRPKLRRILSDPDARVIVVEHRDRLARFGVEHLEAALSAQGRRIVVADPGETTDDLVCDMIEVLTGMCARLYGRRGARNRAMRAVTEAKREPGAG

[3] = system: TnpA IS1535 (WT) (Mycobacterium tuberculosis); experiment: EMSA
[4] = target: TnpA^ISC1926 C-terminal domain (CTD), residues 65-221 (Sulfolobus islandicus); experiment: crystal structure; TnpA^ISC1926 CTD (65-221), hanging drop, 20 mM MOPS pH 7.0, 100 mM Na-acetate, 0.1 mM DTT mixed with 8% tacsimate pH 4.0, 20% PEG3350, 25°C; 2.9 Å; two dimers in the asymmetric unit

Substance: TnpA^IS1535, full length, wild type (enzyme)
- stoichiometry N [1]: 2

Substance: AAAAAGAATTCCGACTCCGCCCAATCCGCCAGATTCACGCCGCCAATTAGAACACACTAACGCACACTAAAACACACTCAACACGCAACAGCTCTGAACCCCAGAGCGTTGGCCGACAAGCGCCCACCACACACGGACGTCTTTTT (double strand) [IS1535 LE 149 bp]
- K half [2]: < 10 nM

Substance: IS1535 LE 149 bp
- K half [3]: < 10 nM

Substance: IS1535 RE 139 bp
- binding signal ([3]; scale: % of probe as PEC): 3

Substance: TnpA^ISC1926 C-terminal domain (CTD), residues 65-221 (domain or fragment)
- stoichiometry N [4]: 2
